Columns and labels:
Assay in all cases: cell-based or functional assay
[1] = target: Cfluc-FKBP12, split site at amino acid position 445 of SEQ ID NO: 2 (Photinus pyralis) (UniProt P62942)
[2] = target: Cfluc-FKBP12, split site at amino acid position 420 of SEQ ID NO: 2 (Photinus pyralis) (UniProt P62942)
[3] = target: Cfluc-FKBP12, split site at amino acid position 437 of SEQ ID NO: 2 (Photinus pyralis) (UniProt P62942)
[4] = target: Cfluc-FKBP12, split site at amino acid position 455 of SEQ ID NO: 2 (Photinus pyralis) (UniProt P62942)
[5] = target: T1, Cfluc (500-550 of SEQ ID NO: 2) (Photinus pyralis, UniProt P08659 501-550 = luciferase)
T1 chain: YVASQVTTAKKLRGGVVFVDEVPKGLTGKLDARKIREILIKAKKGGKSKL

[6] = target: Cfluc (445-550 of SEQ ID NO: 2) (Photinus pyralis, UniProt P08659 446-550 = luciferase)
[7] = target: Cfluc (437-550 of SEQ ID NO: 2) (Photinus pyralis, UniProt P08659 438-550 = luciferase)
[8] = target: Cfluc (300-550 of SEQ ID NO: 2) (Photinus pyralis, UniProt P08659 300-550 = luciferase)
[9] = target: Cfluc (265-550 of SEQ ID NO: 2) (Photinus pyralis, UniProt P08659 265-550 = luciferase)
[10] = target: Cfluc (245-550 of SEQ ID NO: 2) (Photinus pyralis, UniProt P08659 245-550 = luciferase)

Sequence of Cfluc-FKBP12, split site at amino acid position 455 of SEQ ID NO: 2 (Photinus pyralis) (P62942 other isoform, or with tags, fused parts or gaps limits assumed): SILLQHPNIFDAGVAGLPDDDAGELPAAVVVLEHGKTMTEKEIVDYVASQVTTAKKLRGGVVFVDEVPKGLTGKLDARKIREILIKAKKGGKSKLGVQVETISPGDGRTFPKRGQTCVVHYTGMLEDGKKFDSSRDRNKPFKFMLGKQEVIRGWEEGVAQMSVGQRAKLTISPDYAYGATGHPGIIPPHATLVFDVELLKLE
Sequence of Cfluc-FKBP12, split site at amino acid position 420 of SEQ ID NO: 2 (Photinus pyralis) (P62942 other isoform, or with tags, fused parts or gaps limits assumed): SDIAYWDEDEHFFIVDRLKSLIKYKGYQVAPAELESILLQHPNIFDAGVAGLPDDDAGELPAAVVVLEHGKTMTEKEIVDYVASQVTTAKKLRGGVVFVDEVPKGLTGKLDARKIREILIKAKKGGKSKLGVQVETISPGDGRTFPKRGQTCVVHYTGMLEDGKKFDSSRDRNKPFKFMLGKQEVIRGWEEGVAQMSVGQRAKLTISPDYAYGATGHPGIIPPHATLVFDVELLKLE
Sequence of Cfluc-FKBP12, split site at amino acid position 437 of SEQ ID NO: 2 (Photinus pyralis) (P62942 other isoform, or with tags, fused parts or gaps limits assumed): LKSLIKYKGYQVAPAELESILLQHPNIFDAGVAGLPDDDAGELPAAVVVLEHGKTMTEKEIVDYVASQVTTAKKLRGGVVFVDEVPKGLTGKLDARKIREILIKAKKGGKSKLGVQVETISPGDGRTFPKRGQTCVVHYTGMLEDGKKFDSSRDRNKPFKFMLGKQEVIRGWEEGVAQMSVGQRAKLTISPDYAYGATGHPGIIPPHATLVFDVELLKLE
Sequence of Cfluc-FKBP12, split site at amino acid position 445 of SEQ ID NO: 2 (Photinus pyralis) (P62942 other isoform, or with tags, fused parts or gaps limits assumed): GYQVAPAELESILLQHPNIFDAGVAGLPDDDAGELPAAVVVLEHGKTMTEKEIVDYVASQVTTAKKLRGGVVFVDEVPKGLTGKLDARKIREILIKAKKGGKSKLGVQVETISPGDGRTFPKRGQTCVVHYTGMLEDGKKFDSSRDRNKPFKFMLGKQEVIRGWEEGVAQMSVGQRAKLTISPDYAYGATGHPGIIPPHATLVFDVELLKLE

With “FRB-Nfluc, split site at amino acid position 445 of SEQ ID NO: 2 (from UniProt P42345 2024-2113)” as the molecule, how does the firefly luciferase signal upon exposure to rapamycin, fold over the cells not exposed to rapamycin (co-transfected 293T cells) [1] read?
Its firefly luciferase signal upon exposure to rapamycin, fold over the cells not exposed to rapamycin (co-transfected 293T cells) is 350 fold.

For “FRB-Nfluc, split site at amino acid position 420 of SEQ ID NO: 2 (from UniProt P42345 2024-2113)”, which firefly luciferase signal upon exposure to rapamycin, fold over the cells not exposed to rapamycin (co-transfected 293T cells) [2] is on record?
Its firefly luciferase signal upon exposure to rapamycin, fold over the cells not exposed to rapamycin (co-transfected 293T cells) is 10 fold.

For “FRB-Nfluc, split site at amino acid position 437 of SEQ ID NO: 2 (from UniProt P42345 2024-2113)”, which firefly luciferase signal upon exposure to rapamycin, fold over the cells not exposed to rapamycin (co-transfected 293T cells) [3] is on record?
Its firefly luciferase signal upon exposure to rapamycin, fold over the cells not exposed to rapamycin (co-transfected 293T cells) is 40 fold.

With “FRB-Nfluc, split site at amino acid position 455 of SEQ ID NO: 2 (from UniProt P42345 2024-2113)” as the molecule, how does the firefly luciferase signal upon exposure to rapamycin, fold over the cells not exposed to rapamycin (co-transfected 293T cells) [4] read?
The firefly luciferase signal upon exposure to rapamycin, fold over the cells not exposed to rapamycin (co-transfected 293T cells) was 30 fold.

B1: Nfluc (1-475 of SEQ ID NO: 2) (other)
chain: MEDAKNIKKGPAPFYPLEDGTAGEQLHKAMKRYALVPGTIAFTDAHIEVNITYAEYFEMSVRLAEAMKRYGLNTNHRIVVCSENSLQFFMPVLGALFIGVAVAPANDIYNERELLNSMNISQPTVVFVSKKGLQKILNVQKKLPIIQKIIIMDSKTDYQGFQSMYTFVTSHLPPGFNEYDFVPESFDRDKTIALIMNSSGSTGLPKGVALPHRTACVRFSHARDPIFGNQIIPDTAILSVVPFHHGFGMFTTLGYLICGFRVVLMYRFEEELFLRSLQDYKIQSALLVPTLFSFFAKSTLIDKYDLSNLHEIASGGAPLSKEVGEAVAKRFHLPGIRQGYGLTETTSAILITPEGDDKPGGVGKVVPFFEAKVVDLDTGKTLGVNQRGELCVRGPMIMSGYVNNPEATNALIDKDGWLHSDIAYWDEDEHFFIVDRLKSLIKYKGYQVAPAELESILLQHPNIFDAGVAGLPDDD
What does the source list for B1?
average of photon max across six animals, 72 h [5]: 0.3 P/cm^2/sec/sr; average of photon max across six animals, 72 h [6]: 0.7 P/cm^2/sec/sr; average of photon max across six animals, 72 h [7]: 2.1 P/cm^2/sec/sr; average of photon max across six animals, 72 h [8]: 1.9 P/cm^2/sec/sr; bioluminescence signal of implanted co-transfected 293T cells in living mice, 24 h [8]: 0.3 P/cm^2/sec/sr; average of photon max across six animals, 72 h [9]: 1.8 P/cm^2/sec/sr; bioluminescence signal of implanted co-transfected 293T cells in living mice, 24 h [9]: 0.3 P/cm^2/sec/sr; average of photon max across six animals, 72 h [10]: 1.1 P/cm^2/sec/sr; bioluminescence signal of implanted co-transfected 293T cells in living mice, 24 h [10]: 0.3 P/cm^2/sec/sr; luciferase signal against the combination Nfluc 1-475 / Cfluc 265-550 (cell culture and animal study) [10]: 2 fold less
